Results on two substances are retold here after paper PMC4365481.

As usually defined, the IC50 is the midpoint of a concentration-inhibition curve. The low end stands for greater potency in that assay, the high end for weaker potency in that assay.

The target in test [1] is GST-α-actinin R2 (UniProt P05094). The experiment in a line: pull-down; competition: 2 µg GST-α-actinin R2 on glutathione-sepharose, cross-linked with dimethyl pimelimidate; 1 ml of 250 nM His6-GluN1 cytoplasmic domain with increasing amounts of ICAM-5 cytoplasmic domain, RT 1 h; bound His6-GluN1 by western blotting, band intensities fitted to an exponential decay …. (In general: In western blotting, separated proteins are transferred to a membrane and probed.)

Test [2] has as its target GST-α-actinin R1-R4 (the whole rod domain) (UniProt P05094). The experiment in a line: ELISA. Particulars: ICAM-5 cytoplasmic domains coated on plates and incubated with GST-α-actinin rod domains; values normalized to the level of BSA binding; parent: est. 0.28; read off a plot. A general note: An ELISA detects its analyte on a solid surface through an enzyme-linked reagent.

Another test concerns the target GST-α-actinin R1. The experiment in a line: ELISA. Particulars: ICAM-5 cytoplasmic domains coated on plates and incubated with GST-α-actinin rod domains; values normalized to the level of BSA binding; parent: est. 0.10; read off a plot.
Test [3] concerns the target GST-α-actinin R2 (UniProt P05094). Put plainly: ELISA. Particulars: ICAM-5 cytoplasmic domains coated on plates and incubated with GST-α-actinin rod domains; values normalized to the level of BSA binding; parent: est. 0.22; read off a plot.
For the next test, the target named is GST-α-actinin R3. Put plainly: ELISA. Particulars: ICAM-5 cytoplasmic domains coated on plates and incubated with GST-α-actinin rod domains; values normalized to the level of BSA binding; parent: est. 0.072; read off a plot.
For the next test, the target named is GST-α-actinin R4 (UniProt P05094). Put plainly: ELISA. Conditions: ICAM-5 cytoplasmic domains coated on plates and incubated with GST-α-actinin rod domains; values normalized to the level of BSA binding; parent: est. 0.020; read off a plot.

UniProt P05094, sequence (P05094 387-510): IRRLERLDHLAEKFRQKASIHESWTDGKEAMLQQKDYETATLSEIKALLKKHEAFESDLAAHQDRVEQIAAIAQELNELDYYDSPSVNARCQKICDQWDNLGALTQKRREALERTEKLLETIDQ

As for “ICAM-5 cytoplasmic domain (WT) (from UniProt Q9UMF0 857-924) (domain or fragment)”, in the test with GST-α-actinin R2 [1], the IC50 was 55 nM.
For “ICAM-5 cytoplasmic domain (WT) (from UniProt Q9UMF0) K857A; K858A”, the response in test [2] amounted to 0.015 A492; with GST-α-actinin R1, 0.035 A492; with GST-α-actinin R2 [3], 0.015 A492; with GST-α-actinin R3 it was 0.02 A492; in the test with GST-α-actinin R4, 0.022 A492.
